{"source": "paper PMC6839023", "about": "“Structure of the UspA1 protein fragment from Moraxella catarrhalis responsible for C3d binding” (Journal of Structural Biology, 2019)", "proteins": {"B1": {"name": "UspA1^299–452 (ubiquitous surface protein A1 fragment, residues 299–452) (domain or fragment)", "chain": "not shown", "modifications": "fluorescently labelled with the Monolith NT His-Tag Labelling Kit RED-tris-NTA (thermophoresis only)", "notes": "UspA1 of Moraxella catarrhalis strain ATCC 25238 (BC5), GenBank AAD43465, residues 299-452: part of the long neck (299-336) and of the stalk (337-452); Cloned NdeI/HindIII into pET22b(+); No thrombin cleavage is described; Trimer in the crystal; also called UspA1 fragment (amino acids 299–452); UspA^299–452; source: E. coli BL21(DE3), purified (NiNTA, Superdex 200)"}}, "molecular_target": "the molecule itself", "experiment": "crystal structure; UspA1 299-452 (2.4 mg/ml) mixed 1:3 with C3d (10.7 mg/ml); 1,6-hexanediol, 0.1 M Tris-HCl pH 8.5, 20 mM MgCl2; 2.5 Å; the crystals held only UspA1 299-452"}
{"protein": "B1", "values": [{"measurement": "stoichiometry N", "result": 3}]}
